From the supplement of paper PMC7877785 come the findings set out here.

This series is described as follows: self-splicing fitness, log relative to wild type (ln ratio); higher = more splicing; Tetrahymena group I intron in knt gene, E. coli kanamycin selection, DiMSum; sequences stand for … in CUCUCU…GGAGGGAAAAGUUAUCAGGCAUGCACCUGGUAGCUAGUCUUUAAACCAAUAGAUUGCAUCGGUUUAAAAGGCAAGACCGUCAAAUUGCGGGAAAGGGGUCAACAGCCGUUCAGUACCAAGUCUCAGGGGAAACUUUGAGAUGGCCUUGCAAAGGGUAUGGUAAUAAGCUGACGGACAUGGUCCUAACCACGCAGCCAAGUCCUAAGUCAACAGAUCUUCUGUUGAUAUGGAUGCAGUUCACAGACUAAAUGUCGGUCGGGGAAGAUGUAUUCUUCUCAUAAGAUAUAGUCGGACCUCUCCUUAAUGGGAGCUAGCGGAUGAAGUGAUGCAACACUGGAGCCGCUGGGAACUAAUUUGUAUGCGAAAGUAUAUUGAUUAGUUUUGGAGUACUCGUGGUCG
In outline:
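Pooled colonies went to amplicon sequencing on an Illumina HiSeq 2500 after six replicate transformations. The plates were LB agar with 100 μg/mL carbenicillin, 50 μM IPTG and 0.2% rhamnose, with or without 25 μg/mL kanamycin, incubated overnight at 37°C or 30°C. The E. coli BL21(DE3) library had all eight P1ex-region intron nucleotides randomised, the intron placed in the knt kanamycin-resistance gene on pET-22b(+). DiMSum fitness is the error-weighted combination of replicate fold changes, kanamycin against none, normalised to wild type.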

± gives the uncertainty stated by the source.

Turning to AUCCAGCAAUAUUACGCGCU, the “self-splicing fitness (ln)” value was -3.57 ± 0.22 (30 °C) and -2.37 ± 0.22 (37 °C). For AUCCAGCAAUAUUACGCGUU the same measures were -1.06 ± 0.087 and -0.503 ± 0.1.

For AUCCAGCAAUAUUACGGCAC, the “self-splicing fitness (ln)” value runs as follows: (30 °C) -0.153 ± 0.085; (37 °C) -0.31 ± 0.099. In the same order, the values of AUCCAGCAAUAUUACGGGAU are -3.75 ± 0.28 and -2.9 ± 0.36. Take AUCCAGCAAUAUUACGGGUG: the “self-splicing fitness (ln)” value runs as follows: (30 °C) -1.18 ± 0.049; (37 °C) -0.904 ± 0.061.

Turning to AUCCAGCAAUAUUACGUAUG, the “self-splicing fitness (ln)” value is -3.79 ± 0.2 (30 °C) and -2.05 ± 0.16 (37 °C).

Take AUCCAGCAAUAUUACGUCAA: the “self-splicing fitness (ln)” value (30 °C) was -1.99 ± 0.1 and the “self-splicing fitness (ln)” value (37 °C) was -1.54 ± 0.098. As to AUCCAGCAAUAUUACGUCCA, the “self-splicing fitness (ln)” value reads like this: (30 °C) -1.22 ± 0.11; (37 °C) -0.412 ± 0.12. In the same order, the values of AUCCAGCAAUAUUACGUGAA are -0.631 ± 0.049 and -0.212 ± 0.072.

Turning to AUCCAGCAAUAUUACGUUAA, the “self-splicing fitness (ln)” value was -1.79 ± 0.11 (30 °C) and -1.1 ± 0.12 (37 °C). In the same order, the values of AUCCAGCAAUAUUACGUUCU are -1.64 ± 0.096 and -1.39 ± 0.13.

In the case of AUCCAGCAAUAUUACGUUGU, the “self-splicing fitness (ln)” value runs as follows: (30 °C) -3.92 ± 0.12; (37 °C) -2.09 ± 0.093.

Regarding AUCGAGCAAUAUUACGACGC, the “self-splicing fitness (ln)” value runs as follows: (30 °C) -1.28 ± 0.094; (37 °C) -0.674 ± 0.12. Consider AUCGAGCAAUAUUACGAGCU, for which, where the note is “30 °C”, the “self-splicing fitness (ln)” value was -2.36 ± 0.4.

With AUCGAGCAAUAUUACGAUCA, under “37 °C”, the “self-splicing fitness (ln)” value is -0.193 ± 0.26. As to AUCGAGCAAUAUUACGCCUA, for the setting “37 °C”, the “self-splicing fitness (ln)” value is -2.39 ± 0.32. Turning to AUCGAGCAAUAUUACGCCUU, the “self-splicing fitness (ln)” value reads like this: (30 °C) -1.74 ± 0.16; (37 °C) -1.72 ± 0.21. For AUCGAGCAAUAUUACGCGAA the same measures were -1.68 ± 0.2 and -0.699 ± 0.2. In the same order, the values of AUCGAGCAAUAUUACGCGAC are -1.15 ± 0.22 and -2.55 ± 0.4. With AUCGAGCAAUAUUACGCGAG, the “self-splicing fitness (ln)” value (30 °C) was -2.32 ± 0.2 and the “self-splicing fitness (ln)” value (37 °C) is -1.4 ± 0.14. As for AUCGAGCAAUAUUACGCGAU, the “self-splicing fitness (ln)” value (30 °C) is -2.06 ± 0.27. As to AUCGAGCAAUAUUACGCGCU, the “self-splicing fitness (ln)” value reads like this: (30 °C) -2.97 ± 0.26; (37 °C) -2.87 ± 0.36. Take AUCGAGCAAUAUUACGCGGG: the “self-splicing fitness (ln)” value (30 °C) was -2.23 ± 0.24 and the “self-splicing fitness (ln)” value (37 °C) was -1.21 ± 0.29. For AUCGAGCAAUAUUACGCGUC the same measures were -2.85 ± 0.21 and -2.7 ± 0.43. AUCGAGCAAUAUUACGCGUG: the “self-splicing fitness (ln)” value was -2.55 ± 0.13 (30 °C) and -1.2 ± 0.14 (37 °C). On to AUCGAGCAAUAUUACGCUUC, for which the “self-splicing fitness (ln)” value (37 °C) was -3.02 ± 0.44. For the sequence AUCGAGCAAUAUUACGCUUG, the “self-splicing fitness (ln)” value is, setting by setting: (30 °C) -2.41 ± 0.18; (37 °C) -1.1 ± 0.3.

On to AUCGAGCAAUAUUACGGAGG, for which the “self-splicing fitness (ln)” value runs as follows: (30 °C) -1.89 ± 0.39; (37 °C) -0.942 ± 0.25. With AUCGAGCAAUAUUACGGAUC, the “self-splicing fitness (ln)” value (30 °C) was -3.66 ± 0.41 and the “self-splicing fitness (ln)” value (37 °C) is -1.38 ± 0.32. AUCGAGCAAUAUUACGGAUU: the “self-splicing fitness (ln)” value is -3.48 ± 0.22 (30 °C) and -1.26 ± 0.17 (37 °C). For AUCGAGCAAUAUUACGGUGA the same measures were -2.39 ± 0.12 and -2.25 ± 0.15. Take AUCGAGCAAUAUUACGUAAA: the “self-splicing fitness (ln)” value runs as follows: (30 °C) -3.43 ± 0.3; (37 °C) -1.53 ± 0.29. For the sequence AUCGAGCAAUAUUACGUACG, the “self-splicing fitness (ln)” value (37 °C) was -2.07 ± 0.27. In the case of AUCGAGCAAUAUUACGUACU, the “self-splicing fitness (ln)” value is, setting by setting: (30 °C) -1.09 ± 0.15; (37 °C) -0.28 ± 0.17. For AUCGAGCAAUAUUACGUGAC the same measures were -3.54 ± 0.26 and -2.91 ± 0.29. Take AUCGAGCAAUAUUACGUUGC: the “self-splicing fitness (ln)” value was -2.95 ± 0.29 (30 °C) and -1.7 ± 0.27 (37 °C).

As for AUCGAGCAAUAUUACGUUUU, the “self-splicing fitness (ln)” value by setting is: (30 °C) -4.86 ± 0.36; (37 °C) -1.23 ± 0.12. For AUCUAGCAAUAUUACGACAG the same measures were -3.33 ± 0.3 and -2.68 ± 0.31. For AUCUAGCAAUAUUACGACGG, the “self-splicing fitness (ln)” value is, setting by setting: (30 °C) -2.58 ± 0.33; (37 °C) -2.23 ± 0.42. In the case of AUCUAGCAAUAUUACGAUAU, the “self-splicing fitness (ln)” value runs as follows: (30 °C) -1.15 ± 0.076; (37 °C) -0.605 ± 0.1.
